Assay results as given in the supplement of paper PMC9170038.

System: K4 kissing-loop RNA reporter
Assay: apparent KD of K4 kissing-loop reporter; higher = weaker reporter binding
Conditions: Eterna round: R107; input ligand: FMN 200 uM
Experimental: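 RNA-MaP round R107: designed RNA switches with theophylline, tryptophan, arginine or FMN aptamers are transcribed on-chip within common flanks. They are titrated with a labelled K4 kissing-loop RNA reporter in RNA-MaP buffer (100 mM Tris pH 7.5, 80 mM KCl, 4 mM MgCl2), without ligand or with the indicated ligand. Median apparent KD per design.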
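Also: bound reporter read as fluorescence of individual clusters on recovered sequencing chips by microscopy, with normalized cluster intensities fitted with a binding model.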

Which “apparent KD of K4 kissing-loop reporter” value does the source give for “ACGCUUGAAUAACAAGCGAAAUAAAAUUCGCGAGGACCGGUACGGCCGCCACUCGCUAACUGCGAGUGAUGUUCGAUAAUAAAAU [Mat - Mod of OpenEnded 3 - D16]” here?
Its value is 0.139 µM.

With “UGUACCGAGUCAGGAUAUGGCGUCGAAAGACGAAUCUUAGUGAUGUUAGGGAUCUGCGAAAGCAGUUCAGAAGGGACUUGGUACU [FmnBS 26 U37+U67]” as the sequence, how does the “apparent KD of K4 kissing-loop reporter” value read?
The value was 0.349 µM.

For “UUUGGAGUGGGAGGAUAUCCUAAUAUGGGUGAUGUUAGCGAUGUUGAAGGUGUAGUGAUGUUAUGCGGAGAAGGCCCAGUGUAGA [BDazzled - #18 - Exc. FMN B]”, which “apparent KD of K4 kissing-loop reporter” value is on record?
Its value is 0.166 µM.

For “GGUAGCAUGGCGGCCGCCACUUAAUCACUCCAGGAUGAGGAAUAUAAGCAGUGAUGUUGCUAAGUAAGGACCGGGCCAUGCUACC”, which “apparent KD of K4 kissing-loop reporter” value is on record?
Its value is 0.269 µM.

With “UGAUAGGACAGAAGGAGCGGUAGUGAUGUUACCAAAAGGUUAAGGUGUCAAAAGACACCCUGCCAGGUAGGUCGCUGUCCUAUCU” as the sequence, how does the “apparent KD of K4 kissing-loop reporter” value read?
Its value is 0.117 µM.

Which “apparent KD of K4 kissing-loop reporter” value does the source give for “GUACGCUUCCGAGUGAUGUUCGGAAAUCGCUAGGAUAUCGCUUUUGCGAGAAGGAGCGCAAUGAGGAAACUCGUUGUUAGUGUAC [FMN A 27]” here?
Its value is 0.164 µM.

For “CGAUGGAUGGCAGGAUAUAGACAUUGAGUGAUGUUCGAUGAUUAUCCAUAUUCCCGUCACCUAUGACUAGAAGGGCCAUCCAUCG”, which “apparent KD of K4 kissing-loop reporter” value is on record?
Its value is 0.236 µM.

Which “apparent KD of K4 kissing-loop reporter” value does the source give for “AGCGACUCUUCGGAGUCGCGGCUAAGGGAUACCAGUGAUGUUGGUCACCCUUGGCAGCCCAGAAGCCAAGCCACCAAAGGUGGCA [Omei KL Theo A Exc A v5]” here?
The value was 0.104 µM.

With “UGACUGGACUGAAGGAGCGGGCGAGACAAAGUCUCGAACUCGUAGUGAUGUUACGAAAUAACCCAGGUAGGUCGCAGUCUAGUCU” as the sequence, how does the “apparent KD of K4 kissing-loop reporter” value read?
The value was 0.0778 µM.

With “GUACGCUCCCGAGUGAUGUUCGGUAAUCGCGAGGAUAUCGCUUUUGCGAGAAGGCGCGGAAUGAGGAAACUCGUUCUGAGUGUAC [FMN A 25]” as the sequence, how does the “apparent KD of K4 kissing-loop reporter” value read?
The value was 0.234 µM.

With “GCCGUACGCACGGAUACCAGCACUCGGUGAGUGAUGUUCACGGUGUGGUAUUCAUCGGGCUGCCCUUGGCAGCCGUGCGUACGGC” as the sequence, how does the “apparent KD of K4 kissing-loop reporter” value read?
Its value is 0.153 µM.

“AAUAUAUAGUGAAGGAGCGCGUAUUGCAGUGAUGUUGCUAAGUUAUUAUUAUCUAUUUUUACGCAGGUAGGUCGCACUAUAUAUA [JR_SSArginiB_Sub014]” was tested. Which “apparent KD of K4 kissing-loop reporter” value did it give?
The value was 0.213 µM.

“CGUCUAUAGCAGGAUACCAGUACCCAUUAUGUACGUUUAUAGUAGAGUGAUGUUCUAAAGUACCCUUGGCAGCUUCCUGUGACCC [#24 K4 Theophylline B Exclusion]” was tested. Which “apparent KD of K4 kissing-loop reporter” value did it give?
The value was 0.179 µM.

Which “apparent KD of K4 kissing-loop reporter” value does the source give for “UAUAUAUGAUGUGAUACCAGUGAAAAGCCAGUGAUGUUGGUAGAACUGGUAUAUAAAUGGCACCCUUGGCAGCACAAUCACGUAU [#28 K4 Theophylline B Exclusion]” here?
The value was 0.119 µM.

With “AAUGCAUAGUGAAGGAGCGCGUAUAGCAGUGAUGUUGCUUACUUAUUAUUAUAUUAAUUGACGCAGGUAGGUCGCACUUUGCAUA [JR_ExcArginiB_Sub022]” as the sequence, how does the “apparent KD of K4 kissing-loop reporter” value read?
The value was 0.196 µM.

Which “apparent KD of K4 kissing-loop reporter” value does the source give for “AGUGAUGUUGUGUUGUGUUAGGGAAGUGAUCGAGGACCGGUACGGCCGCCACUCGAGUGAUGAGUGAGUGAUGUUUGUUUAGGGA [whbob_SS_Tryp_A_m8]” here?
Its value is 0.926 µM.

With “AUAGAAAAGUGGCACCCUCACUAAAACAGUCGAGGACCGGUACGGCCGCCACUCGCGCGCUUUAGUGAUGUUAAAGCUAUGCAAA” as the sequence, how does the “apparent KD of K4 kissing-loop reporter” value read?
The value was 0.407 µM.

With “CCGUCGACAAGCGCCAUCGUCUACGUCAAUAAGGAUAUCAUCAAGGUGAGAAGGUAUGACAACCGGAGUGAUGUUCCAGGGCGAA [theeternabot_sameState_KL_FMN_A_5]” as the sequence, how does the “apparent KD of K4 kissing-loop reporter” value read?
Its value is 0.506 µM.

Same assay, conditions: Eterna round: R107; input ligand: arginine 13.2 mM

“ACGCUUGAAUAACAAGCGAAAUAAAAUUCGCGAGGACCGGUACGGCCGCCACUCGCUAACUGCGAGUGAUGUUCGAUAAUAAAAU [Mat - Mod of OpenEnded 3 - D16]” was tested. Which “apparent KD of K4 kissing-loop reporter” value did it give?
The value was 0.0802 µM.

Which “apparent KD of K4 kissing-loop reporter” value does the source give for “UGUACCGAGUCAGGAUAUGGCGUCGAAAGACGAAUCUUAGUGAUGUUAGGGAUCUGCGAAAGCAGUUCAGAAGGGACUUGGUACU [FmnBS 26 U37+U67]” here?
Its value is 0.427 µM.

“UUUGGAGUGGGAGGAUAUCCUAAUAUGGGUGAUGUUAGCGAUGUUGAAGGUGUAGUGAUGUUAUGCGGAGAAGGCCCAGUGUAGA [BDazzled - #18 - Exc. FMN B]” was tested. Which “apparent KD of K4 kissing-loop reporter” value did it give?
The value was 0.146 µM.

With “GGUAGCAUGGCGGCCGCCACUUAAUCACUCCAGGAUGAGGAAUAUAAGCAGUGAUGUUGCUAAGUAAGGACCGGGCCAUGCUACC” as the sequence, how does the “apparent KD of K4 kissing-loop reporter” value read?
Its value is 0.271 µM.

How did the “apparent KD of K4 kissing-loop reporter” value turn out when “UGAUAGGACAGAAGGAGCGGUAGUGAUGUUACCAAAAGGUUAAGGUGUCAAAAGACACCCUGCCAGGUAGGUCGCUGUCCUAUCU” was run?
The value was 0.098 µM.

How did the “apparent KD of K4 kissing-loop reporter” value turn out when “GUACGCUUCCGAGUGAUGUUCGGAAAUCGCUAGGAUAUCGCUUUUGCGAGAAGGAGCGCAAUGAGGAAACUCGUUGUUAGUGUAC [FMN A 27]” was run?
The value was 0.146 µM.

Which “apparent KD of K4 kissing-loop reporter” value does the source give for “CGAUGGAUGGCAGGAUAUAGACAUUGAGUGAUGUUCGAUGAUUAUCCAUAUUCCCGUCACCUAUGACUAGAAGGGCCAUCCAUCG” here?
Its value is 0.485 µM.

Which “apparent KD of K4 kissing-loop reporter” value does the source give for “AGCGACUCUUCGGAGUCGCGGCUAAGGGAUACCAGUGAUGUUGGUCACCCUUGGCAGCCCAGAAGCCAAGCCACCAAAGGUGGCA [Omei KL Theo A Exc A v5]” here?
The value was 0.0986 µM.

For “UGACUGGACUGAAGGAGCGGGCGAGACAAAGUCUCGAACUCGUAGUGAUGUUACGAAAUAACCCAGGUAGGUCGCAGUCUAGUCU”, which “apparent KD of K4 kissing-loop reporter” value is on record?
The value was 0.062 µM.

How did the “apparent KD of K4 kissing-loop reporter” value turn out when “GUACGCUCCCGAGUGAUGUUCGGUAAUCGCGAGGAUAUCGCUUUUGCGAGAAGGCGCGGAAUGAGGAAACUCGUUCUGAGUGUAC [FMN A 25]” was run?
Its value is 0.191 µM.

“GCCGUACGCACGGAUACCAGCACUCGGUGAGUGAUGUUCACGGUGUGGUAUUCAUCGGGCUGCCCUUGGCAGCCGUGCGUACGGC” was tested. Which “apparent KD of K4 kissing-loop reporter” value did it give?
The value was 0.0936 µM.

With “AAUAUAUAGUGAAGGAGCGCGUAUUGCAGUGAUGUUGCUAAGUUAUUAUUAUCUAUUUUUACGCAGGUAGGUCGCACUAUAUAUA [JR_SSArginiB_Sub014]” as the sequence, how does the “apparent KD of K4 kissing-loop reporter” value read?
The value was 0.231 µM.

For “CGUCUAUAGCAGGAUACCAGUACCCAUUAUGUACGUUUAUAGUAGAGUGAUGUUCUAAAGUACCCUUGGCAGCUUCCUGUGACCC [#24 K4 Theophylline B Exclusion]”, which “apparent KD of K4 kissing-loop reporter” value is on record?
Its value is 0.189 µM.

Which “apparent KD of K4 kissing-loop reporter” value does the source give for “UAUAUAUGAUGUGAUACCAGUGAAAAGCCAGUGAUGUUGGUAGAACUGGUAUAUAAAUGGCACCCUUGGCAGCACAAUCACGUAU [#28 K4 Theophylline B Exclusion]” here?
The value was 0.108 µM.

With “AAUGCAUAGUGAAGGAGCGCGUAUAGCAGUGAUGUUGCUUACUUAUUAUUAUAUUAAUUGACGCAGGUAGGUCGCACUUUGCAUA [JR_ExcArginiB_Sub022]” as the sequence, how does the “apparent KD of K4 kissing-loop reporter” value read?
The value was 0.144 µM.

Which “apparent KD of K4 kissing-loop reporter” value does the source give for “AGUGAUGUUGUGUUGUGUUAGGGAAGUGAUCGAGGACCGGUACGGCCGCCACUCGAGUGAUGAGUGAGUGAUGUUUGUUUAGGGA [whbob_SS_Tryp_A_m8]” here?
The value was 1.29 µM.

For “AUAGAAAAGUGGCACCCUCACUAAAACAGUCGAGGACCGGUACGGCCGCCACUCGCGCGCUUUAGUGAUGUUAAAGCUAUGCAAA”, which “apparent KD of K4 kissing-loop reporter” value is on record?
The value was 0.358 µM.

With “CCGUCGACAAGCGCCAUCGUCUACGUCAAUAAGGAUAUCAUCAAGGUGAGAAGGUAUGACAACCGGAGUGAUGUUCCAGGGCGAA [theeternabot_sameState_KL_FMN_A_5]” as the sequence, how does the “apparent KD of K4 kissing-loop reporter” value read?
The value was 0.362 µM.

Same assay, conditions: Eterna round: R107; input ligand: none

With “ACGCUUGAAUAACAAGCGAAAUAAAAUUCGCGAGGACCGGUACGGCCGCCACUCGCUAACUGCGAGUGAUGUUCGAUAAUAAAAU [Mat - Mod of OpenEnded 3 - D16]” as the sequence, how does the “apparent KD of K4 kissing-loop reporter” value read?
Its value is 0.129 µM.

With “UGUACCGAGUCAGGAUAUGGCGUCGAAAGACGAAUCUUAGUGAUGUUAGGGAUCUGCGAAAGCAGUUCAGAAGGGACUUGGUACU [FmnBS 26 U37+U67]” as the sequence, how does the “apparent KD of K4 kissing-loop reporter” value read?
Its value is 0.506 µM.

With “UUUGGAGUGGGAGGAUAUCCUAAUAUGGGUGAUGUUAGCGAUGUUGAAGGUGUAGUGAUGUUAUGCGGAGAAGGCCCAGUGUAGA [BDazzled - #18 - Exc. FMN B]” as the sequence, how does the “apparent KD of K4 kissing-loop reporter” value read?
Its value is 0.245 µM.

How did the “apparent KD of K4 kissing-loop reporter” value turn out when “GGUAGCAUGGCGGCCGCCACUUAAUCACUCCAGGAUGAGGAAUAUAAGCAGUGAUGUUGCUAAGUAAGGACCGGGCCAUGCUACC” was run?
Its value is 0.327 µM.

How did the “apparent KD of K4 kissing-loop reporter” value turn out when “UGAUAGGACAGAAGGAGCGGUAGUGAUGUUACCAAAAGGUUAAGGUGUCAAAAGACACCCUGCCAGGUAGGUCGCUGUCCUAUCU” was run?
The value was 0.106 µM.

For “GUACGCUUCCGAGUGAUGUUCGGAAAUCGCUAGGAUAUCGCUUUUGCGAGAAGGAGCGCAAUGAGGAAACUCGUUGUUAGUGUAC [FMN A 27]”, which “apparent KD of K4 kissing-loop reporter” value is on record?
The value was 0.177 µM.

“CGAUGGAUGGCAGGAUAUAGACAUUGAGUGAUGUUCGAUGAUUAUCCAUAUUCCCGUCACCUAUGACUAGAAGGGCCAUCCAUCG” was tested. Which “apparent KD of K4 kissing-loop reporter” value did it give?
Its value is 0.464 µM.

How did the “apparent KD of K4 kissing-loop reporter” value turn out when “AGCGACUCUUCGGAGUCGCGGCUAAGGGAUACCAGUGAUGUUGGUCACCCUUGGCAGCCCAGAAGCCAAGCCACCAAAGGUGGCA [Omei KL Theo A Exc A v5]” was run?
Its value is 0.111 µM.

With “UGACUGGACUGAAGGAGCGGGCGAGACAAAGUCUCGAACUCGUAGUGAUGUUACGAAAUAACCCAGGUAGGUCGCAGUCUAGUCU” as the sequence, how does the “apparent KD of K4 kissing-loop reporter” value read?
The value was 0.0749 µM.
